Data taken from PMC6389977, “Dengue virus nonstructural 3 protein interacts directly with human glyceraldehyde-3-phosphate dehydrogenase (GAPDH) and reduces its glycolytic activity” (Scientific Reports, 2019).

B1: purified recombinant human GAPDH protein (enzyme)
chain: not shown
notes: also called glyceraldehyde-3-phosphate dehydrogenase

Columns and labels:
[1] = biological target: T1, recombinant full-length DENV2 NS3 protein (dengue virus 2, New Guinea C (NGC) …, UniProt P14340 1476-2093); test: SPR; conditions: both partners purified
T1 construct: also called full-length NS3
T1 sequence (P14340 1476-2093): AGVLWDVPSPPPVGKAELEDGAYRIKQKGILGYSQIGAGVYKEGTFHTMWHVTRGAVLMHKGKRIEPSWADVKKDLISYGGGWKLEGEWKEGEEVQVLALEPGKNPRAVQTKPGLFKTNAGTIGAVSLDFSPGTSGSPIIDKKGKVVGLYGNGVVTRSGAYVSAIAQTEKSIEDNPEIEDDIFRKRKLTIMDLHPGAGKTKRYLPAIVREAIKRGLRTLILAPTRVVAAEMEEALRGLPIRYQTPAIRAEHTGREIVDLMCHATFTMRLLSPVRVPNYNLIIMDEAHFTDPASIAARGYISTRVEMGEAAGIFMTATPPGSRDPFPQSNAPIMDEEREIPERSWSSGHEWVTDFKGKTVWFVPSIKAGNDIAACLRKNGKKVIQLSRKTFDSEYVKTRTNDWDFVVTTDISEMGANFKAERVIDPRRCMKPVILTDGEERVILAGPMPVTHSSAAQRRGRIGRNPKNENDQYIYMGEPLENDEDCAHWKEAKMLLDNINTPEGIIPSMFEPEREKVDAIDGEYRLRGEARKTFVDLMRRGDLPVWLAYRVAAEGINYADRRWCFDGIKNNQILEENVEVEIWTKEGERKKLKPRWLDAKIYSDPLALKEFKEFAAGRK

[2] = biological target: B1; test: SPR; unpublished data; no conditions told; the estimate is given together with the ELISA result of ref. 39

## B1
[1]
  Kd: 310 nM

B2: DENV2 NS1 protein (natural protein)
chain: DSGCVVSWKNKELKCGSGIFITDNVHTWTEQYKFQPESPSKLASAIQKAHEEGICGIRSVTRLENLMWKQITPELNHILSENEVKLTIMTGDIKGIMQAGKRSLQPQPTELKYSWKTWGKAKMLSTESHNQTFLIDGPETAECPNTNRAWNSLEVEDYGFGVFTTNIWLKLREKQDVFCDSKLMSAAIKDNRAVHADMGYWIESALNDTWKIEKASFIEVKSCHWPKSHTLWSNGVLESEMIIPKNFAGPVSQHNYRPGYHTQTAGPWHLGKLEMDFDFCEGTTVVVTEDCGNRGPSLRTTTASGKLITEWCCRSCTLPPLRYRGEDGCWYGMEIRPLKEKEENLVNSLVTA
[2]
  Kd: 2000 to 3000 nM
